Data reported in paper PMC9254699 (2021).
No end group written: not given here.

Key:
TGF-β1 [1] = biological target: T1, TGF-β1 (Homo sapiens, UniProt P01137); experiment: SPR
TGF-β1 [2] = biological target: T1, TGF-β1; experiment: SPR; remark: listed apart in the source
TGF-β1 [3] = biological target: T1, TGF-β1; experiment: sequestering from PRP by peptide-conjugated microspheres
TGF-β1 [4] = biological target: T1, TGF-β1; experiment: 125I-TGF-β1 sequestering in 10% serum by peptide-conjugated microspheres

T1 sequence (P01137 279-390): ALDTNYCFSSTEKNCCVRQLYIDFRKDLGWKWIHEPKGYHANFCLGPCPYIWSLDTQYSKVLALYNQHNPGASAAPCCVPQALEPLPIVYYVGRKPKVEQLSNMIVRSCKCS

| Binder | Kd (TGF-β1 [1]) | Kd (TGF-β1 [2]) | Kd (TGF-β1 [3]) | Kd (TGF-β1 [4]) |
| --- | --- | --- | --- | --- |
| CLIDFRIPADREVPI [Scrambled RIP] | 745 nM | 765 nM |  |  |
| CIAEIDLIPRDRPF | 183 nM | 106 nM |  |  |
| CIAEIDLIPRDRPFV [RIP] | 98.3 nM | 60 nM |  |  |
| CIAEIDLIPRDRPF (also: conjugated to PEG microspheres) |  |  | ~215 nM | ~211 nM |
